The source of these data is patent US11285284B2, “Methods for treatment of pulmonary lung diseases with improved therapeutic efficacy and improved dose efficiency” (PNEUMA RESPIRATORY, INC., priority 2016, dated 2022).

Values joined by “and” are separate entries in the source; they are usually repeats but may differ in a detail not shown here. Equal entries are not always repeated.

A short description of series [1]: Enbrel stability after aerosol generation, size exclusion chromatography. The class given is physicochemical. As to conditions: for Peak Area %, Peak 1 / Peak Area %, Peak 2 / Peak Area %, Peak 4 / Peak Area %, Peak 5: SEC UV 280 nm. The text has this:
Alternately, to determine the stability of active agent after droplet generation, the generated stream of droplets including the active agent may be collected and […] may be employed to monitor for any changes in large molecule aggregation and protein fragment content. Soluble protein aggregates and protein fragment content may be calculated by comparing respective peak area under the SEC-HPLC curve of dispensed protein solutions with controls (solutions remaining in the device reservoir). Drug solutions for testing include Enbrel, (ENBREL® single-use prefilled syringes in 25 mg (0.51 mL of a 50 mg/mL solution of etanercept), and insulin, (Humalog, 200 units/ml, 3 ml […] is performed with a YarraTM 3 um SEC-2000 LC column 300×7.8 mm, SecurityGuard cartridge kit and SecurityGuard cartridges GFC-2000, 4×3 mm ID. Fifty microliters of Enbrel from the syringe (ENBREL® single-use prefilled syringes in 25 mg/0.51 mL of a 50 mg/mL solution of etanercept) is diluted (4:1) (4 parts, 200 mcl of the mobile phase buffer solution to 1 part, 50 mcl Enbrel from syringe). Fifty microliter of the diluted Enbrel is injected and separation was performed at a flow rate of 1.0 ml/min. The mobile phase buffer system included a PHOS. BUFF. SALINE. […] UV detection is performed at 280 nm. […] An ampule/cartridge is filled with either 0.20 ml of Enbrel® (50 mg/ml) diluted 4:1 (10 mg/ml)(4 parts (200 mcl) of PBS and 0.025% NaN3 and 1 part (50 mcl of Enbrel solution from the syringe). After 20 actuations and aerosolization, about 150 mcl of the aerosolized Enbrel solution is recovered and collected in the polypropylene tube located below the ejector mechanism. The control consists of the diluted Enbrel solution, 50 mcl of which is injected into the SEC column for analysis.
In general terms: In gel filtration, larger molecules generally elute earlier.

A short description of series [2]: Gravimetric analysis of delivered dose per actuation. The class given is physicochemical. The settings on record: for total delivered dose per actuation: from gravimetric mass and solution concentration; for average mass ejected per dose (actuation), gravimetric: solution filled ampule weighed before and after dosing, average of five doses. How it is done: Gravimetric analysis was performed by weighing the Enbrel solution filled ampule before and after dosing. The average of five doses (actuations) were analyzed with an average of 4.25 mg+/−0.15 mg. The total delivered dose of Enbrel per actuation is therefore […] per actuation.
Gravimetric analysis was performed by weighing the Insulin solution filled ampule before and after dosing. The average of five doses (actuations) were analyzed with an average of 5.01 mg+/−0.53 mg. The total delivered dose of Insulin per actuation is therefore 34.8 mcg per actuation.

Series [3] can be described thus: Gel electrophoresis of active agent after droplet generation. The series is classed as physicochemical. The text has this:
Gel Electrophoresis: To determine the stability of active agent after droplet generation, the generated stream of droplets including the active agent is collected and the molecular weight of the active agent is verified using gel electrophoresis.

The test system of series [4] is patients with cystic fibrosis. The settings on record: cited from earlier work.
A short description of series [5]: Insulin stability after aerosol generation, size exclusion chromatography. The class given is physicochemical. The text has this:
Alternately, to determine the stability of active agent after droplet generation, the generated stream of droplets including the active agent may be collected and SEC-HPLIC may be employed to monitor for any changes in large molecule aggregation and protein fragment content. Soluble protein aggregates and protein fragment content may be calculated by comparing respective peak area under the SEC-HPLC curve of dispensed protein solutions with controls (solutions remaining in the device reservoir).
Drug solutions for testing include Enbrel, (ENBREL® single-use prefilled syringes in 25 mg (0.51 mL of a 50 mg/mL solution of etanercept), and insulin, (Humalog, 200 units/ml, 3 ml kwikpens)
To calculate and compare effects of droplet generation through an ejector mechanism of the disclosure, the total area under the curve of the UV signal at 280 nm versus elution time for controls is compared with the aerosolized samples, which is set to 100%.
Aerosol collection and SEC is performed in a similar fashion as for the Enbrel analysis and aerosol collection.
Fifty microliters of the collected aerosol spray is injected onto the SEC column for analysis, while 50 mcl of the Kwikpen insulin solution is injected onto the SEC column for control samples.

[6] abbreviates: average of aerosolized S1 and S2.
The mark [7] stands for this setting: control, Enbrel diluted 4:1 (10 mg/ml), not aerosolized.

Regarding Enbrel, the “Peak Area %, Peak 1” value in series [1] (aerosolized with test device, 20 actuations, ret time about 5.3 min) is 2.796% and 3.476%; in series [1] (control, Enbrel diluted 4:1 (10 mg/ml), not aerosolized, ret time 4.3-5.3 min) it was 2.428% and 3.041%. Further, the “Peak Area %, Peak 2” value was 90.789% and 92.112% in series [1] (aerosolized with test device, 20 actuations, ret time about 5.8 min); 96.676% and 95.909% in series [1] (control, Enbrel diluted 4:1 (10 mg/ml), not aerosolized, ret time 4.8-5.8 min). For the same compound, the “Peak Area %, Peak 4” value in series [1] (aerosolized with test device, 20 actuations, ret time about 13 min) is 0.357% and 0.352%; in series [1] (setting [7]), 0%. The “Peak Area %, Peak 5” value in series [1] (aerosolized with test device, 20 actuations, ret time about 25 min) is 5.130% and 3.428% and 5.123%; in series [1] (setting [7]), 0%. Moreover, the “Peak Area %, Peak 4, Avg.” value in series [1] (setting [6]) was 0.3545. In addition, in series [1] (setting [6]), the “Peak Area %, Peak 5, Avg.” value worked out at 4.2755. Moreover, the “fraction of the dose forming molecular fragments” value in series [1] (fragments with elution times of 13 and 25 minutes) was 4.6%. Also, the “fraction structurally unchanged after delivering an aerosol dose” value in series [1] (test device, SEC) turned out to be 95.4%. Further, the “total delivered dose per actuation” value in series [2] was found to be 42.5 µg. Moreover, the “average mass ejected per dose (actuation), gravimetric” value in series [2] came to 4.25 mg. Moreover, the “change in electrophoretic mobility (molecular weight) of post-aerosol active agent versus control” value (“change in electrophoretic mobility” for short) in series [3] is on record as “negligible change”.

Regarding `NC[C@H]1O[C@H](O[C@H]2[C@H](O)[C@@H](O[C@H]3O[C@H](CO)[C@@H](O)[C@H](N)[C@H]3O)[C@H](N)C[C@@H]2N)[C@H](N)C[C@@H]1O` [tobramycin], in series [4] (administration by inhalation), the “effect on pulmonary function and kidney side effects” value is “significantly improves pulmonary function without severe side effects to kidney functions”. Also, the “toxicity of serum levels” value in series [4] (intravenous administration) is “toxic to the kidneys”.

On to adalimumab, for which the “change in electrophoretic mobility” value in series [3] is reported as “negligible change”.

On to bevacizumab: antibody (Avastin), for which, in series [3], the “change in electrophoretic mobility” value was “negligible change”.

“Insulin: insulin, Humalog, 200 units/ml, 3 ml kwikpens”: in series [5] (setting [6]), the “Peak Area %, Peak 3, Avg.” value turned out to be 2.4905. For the same compound, the “Peak Area %, Peak 3” value in series [5] (control, Kwikpen insulin solution 200 U/ml, not aerosolized) was 0%. For the same compound, in series [5] (fragment eluting at ~25 minutes), the “fraction of the ejected dose forming a fragment” value is 2.5%. Moreover, the “fraction of the ejected dose structurally unchanged” value in series [5] (test device, SEC) is 97.5%. Besides, in series [2], the “total delivered dose per actuation” value is 34.8 µg and the “average mass ejected per dose (actuation), gravimetric” value came to 5.01 mg.
